Data on one molecule can be found in PMC3351833 (Biochemical Journal, 2011).

acyl = not defined here

For this assay, the target named is calmodulin (recombinant rat CaM) (rat, UniProt P0DP29 2-149). Briefly: NMR titration.

Usually stoichiometry N stands for the number of molecules, sites or subunits per partner or assembly.

For acyl-SSKGTKKFRLEGTLLRTYVCHIIFKT-NH2 (reading uncertain) [Cx50p^141–166 (connexin50 CaM-binding domain peptide, residues 141–166)], the “stoichiometry N” value came out at 1.
